Bridge positions count the residues as written; N and C are the ends. * marks the point of attachment. Biotin = O=C1N[C@H]2[C@H](CS[C@H]2CCCCC(=O)*)N1
How the values were obtained:
[1] = target: T1, CCR1 on peripheral blood monocytes (human, UniProt P32246 1-355); test: flow cytometry, biotinylated chemokine (1 µM) detected with fluorophore-streptavidin, on blood monocytes of a sarcoidosis patient
T1 construct: whole, on cells; also called chemokine (C-C motif) receptor 1
T1 sequence (looked up): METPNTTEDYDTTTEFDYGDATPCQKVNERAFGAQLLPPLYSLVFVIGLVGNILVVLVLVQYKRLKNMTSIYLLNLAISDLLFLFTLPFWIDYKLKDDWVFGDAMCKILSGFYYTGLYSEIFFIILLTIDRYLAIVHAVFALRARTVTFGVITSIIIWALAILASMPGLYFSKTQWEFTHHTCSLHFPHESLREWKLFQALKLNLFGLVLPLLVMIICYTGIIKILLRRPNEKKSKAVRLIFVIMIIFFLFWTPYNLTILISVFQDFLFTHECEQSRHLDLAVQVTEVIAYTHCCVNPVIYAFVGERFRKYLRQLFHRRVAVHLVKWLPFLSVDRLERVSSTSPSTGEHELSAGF
Procedure: Peripheral blood from patients and healthy controls was collected in heparin tubes. The red blood cells were lysed using Fix Buffer (Phosphate Buffer Saline (PBS) citrate with 4% paraformaldehyde) for four minutes at 37° C. and Lysing buffer (PBS with 10 mM Tris and 160 mM NH4Cl, pH 7.5) for 15 min at 37° C. The cells were washed in PBS with 2% Bovine Growth Serum, incubated with 10% human serum 15 min at room temperature (RT) and stained with cell specific antibodies together with biotinylated chemokine (1 μM) or the corresponding chemokine receptor antibody at 4° C. for 30 min (Table 1). The biotinylated chemokine was detected via the interaction between biotin and a fluorophore conjugated Streptavidin. The samples were analysed by flow cytometry on a FACS Canto flow cytometer with the FACSDiva software (BD Biosciences).

hCCR5 = hCCR5 (human, UniProt P51681 1-352); test: cell-based or functional assay
Sequence of hCCR5 (P51681 whole entry): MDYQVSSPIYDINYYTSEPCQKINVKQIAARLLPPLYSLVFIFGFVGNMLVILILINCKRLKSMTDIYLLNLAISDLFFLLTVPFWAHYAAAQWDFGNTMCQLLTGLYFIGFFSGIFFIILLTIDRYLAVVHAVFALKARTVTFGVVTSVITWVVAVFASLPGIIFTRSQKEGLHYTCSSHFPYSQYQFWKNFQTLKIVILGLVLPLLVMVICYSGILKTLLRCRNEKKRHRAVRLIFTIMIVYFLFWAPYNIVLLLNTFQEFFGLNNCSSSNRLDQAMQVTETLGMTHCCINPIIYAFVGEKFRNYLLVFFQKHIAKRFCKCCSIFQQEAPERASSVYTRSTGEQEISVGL

binding result [1]: binds
EC50, agonist activity in an Aequorin assay (hCCR5): 0.5 nM
B1: biotinRANTES (CCL5), RANTES derivatised at Lys(67) with Biotin (ligand)
chain: H-SPYSSDTTPCCFAYIARPLPRAHIKEYFYTSGKCSNPAVVFVTRKNRQVCANPEKKWVREYINSLEK(Biotin)S-OH
modifications: disulfide 10-34, 11-50
notes: Residues 1-68 of mature human RANTES; also called biotinylated RANTES; bRANTES
